Test results from the nanobody polyreactivity screen of Harvey et al. (2022).

Test: yeast display, Sf9 membrane polyspecificity reagent, FACS + sequencing; frameworks hold sequencing errors
Method in brief: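 Galactose-induced (36–48 hours) yeast carrying a synthetic nanobody display library were exposed to 10% biotinylated, detergent-solubilized Sf9 membrane reagent at 4 °C for 1 hour. FACS followed streptavidin microbead enrichment, using low and high (top ~1%) gates for expression (anti-HA) and reagent binding (streptavidin). Colony PCR, MiSeq 2 × 250 sequencing and CDR-length filtering followed. Labels for polyreactivity reflect the gate of origin.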

Sequence	polyreactivity (PSR sort gate)
QVQLVESGGGLVQAGGSLRLSCAASGFIFRAYAMGWYRQAPGKERELVAAISYSGGSTYYADSVKGRFTISRDNAKNTVYLQMNSLKPEDTAVYYCAALTIRVGSLGRDYWGQGTQVTVSS	low polyreactivity
QVQLVESGGGLVQAGGSLRLICAASGATFVDYTMGWYRQAPGKERELVAAITVSAGSTYYADSVKGRFTISRDNAKNTVYLQMNSLKPEDTAVYYCAKATSSFYHYRYDYWGQGTQVTVSS	low polyreactivity
QVQHVESVGGLDQAGRSLRLSCAASGSTFTPYAMGWYRQAPGKESELVAGITGNGGSTRYADSVKGRFTISRDNAKKTVYLQMNSLKPEDTAVYYCAARWTRQRYRTSYYSWGQGTQVTVSS	high polyreactivity
QVQLVESGGGLVQAGGSLRLSCAASGITFSSYAMGWYRQAPGKERELVAGITRRGRITYYADSVNGRFTISRDNAKNTVYLQMNSLKPEDTAVYYCAATHRFRTGSPDGGFGYWGQGTQVTVSS	high polyreactivity
QVLLVESGGGLVQAGGSLRLSCAASGRTFYNYSMGWYRQAPGKERELVAAISGGGTTNYADTVKGRFTISRDNAKNTVYLQMNSLKPEDTAVYSCNAARTRWATGYDYWGQGTQVTVSS	low polyreactivity
QVQLVESGGGLVQAGGSLRLSCAASGFTFLVYAMGWYRQAPGKERELVAGITSGGRTYYADSVKGRFTISRDNAKNTVYLQMNSLKPEDTAVYYCAASRWAYEMNYWGQGSQVTVSS	high polyreactivity
QVQLVESGGGLVQAGGSLRLSCAATGYTFFRNTMGWYRQAPGKESELVAVITKSGGSTYYADSVKWRFTISRDNAKNTVYLHMNSLIPEDTAVYYCNAVTALRNTEYNYWGQGTQVTVSS	high polyreactivity
QVQLVESGGGLVQAGGSLRLSCAASGITFVFYTMGWYRQAPGKERELVAAITSSGVRTSYADSVKGRFTISRDNAKNTVYLQMNSLKPEDTAVYYCAAKPTYVHKPGYNYWGQGTQVTVSS	high polyreactivity
QVQLVESGGGLVQAGGSLRLSCAASGTTFAGNAMGWYRQAPGKEREFVAAITISGGSTYYADSVKGRFTISRDNAKNTVYLQMNRLKPEDTAVYYCAADYAYYVSLPSRFVYAGYDYWGQGTQVTVSS	low polyreactivity
QVQLVESGGGLVQAGGSLLLSSAPTGITFEGYSMGWSRQAPGKERELVAAIRSSGTSTYYADSVKGRFTISRDNAKNTVYLQMNSLKPDDTAVYYCNRARSSSRYDYWGQGTQVTVSS	low polyreactivity
QVQLVESGGVLVQAGGSLRLSCAASGRTFSPYAMGWARQAPGKDRELVAAITSRGASTYYADSVKGRFTISRDNAKNTVYLQMNSLKPEDTAVYYCNSGRTYRRLGDYWGQGTQVTVSS	high polyreactivity
QVQLVESGGGLVQEGGSLRLSCAASGSIFDVYAMGWSRQGPGKERELVAAISSSGSTYYADSVKGRFTISRDNAKNTVYLQMNSLKPEDTAVYYCAAVQADDDDYYYWGQGTQVTVSS	low polyreactivity
QVQLVESGGGLVQAGGSLRLSCAASGFNYSNAMGWYRQAPGKERELVAAITSRGGSTYYADSVKGRFTISRDNAKNTVYLQMNSLKPEDTAVYYCATKVWTRFIYYYWGQGTQVTVSS	high polyreactivity
QVQLVESGGGLVQAGGSLRLSCAASGSTLVRYAMGWYRQAPGKERELVASISYSGGSTHYADSVKGRFTISRDNAKNTVYLQMNSLKPEDTAVYYCAARRYYSWGGHYYWGQGTQVTVSS	high polyreactivity
QVQLEESGGRLVQAGGSLRLTCAASGRTYARYAIGWNRQAPGKERQLVAAISRGGTTNYADSVKGRFTISRDNAKNTVYLQMNSLKPEDTAVYYCNRDFHLIHLSSARLDYWGQGTQVTVSS	low polyreactivity
QVQLVESGGGLVQAGGSLRLSCAASGSIFAVYAMGWYRQAPGKERELVASISRTGTTNYADSVKGRFTISRDNAKNTVYLQMNSLKPEDTAVYYCNADAYLYYKYHWGFTFYQYEYWGQGTQVTVSS	low polyreactivity
QVQLVESGGGLVQAGGSLRLSCAASGSIFPYYAMGWYRQAPGKERELVAAITGAGSTNYADSVKGRFTISRDNAKNTVYLQMNSLKPEDTAVYYCAADFGSPDKWRDWYDYWGQGTQVTVSS	low polyreactivity
QVQLVESGGGLVQAGGSLRLSCAASGFTFNVYAMGWYRQAPGKERELVARITRRGGSTYYADSVKGRFTISRDNAKNTVYLQMNSLKPEDTAVYYCNADSPVVSGRGGRRSAYLNDYWGQGTKVTVSS	high polyreactivity
QVKLVESGGGLVQAGGSLRLSCAASGFIFSNNAMGWYRQAPGKERELVAAITSSGGRTYYADSVKGRFTISRDYAKNTVYLQMNSLKPEDSSVYYCAAARYDIMGYWGLGTQVTVSS	high polyreactivity
QVQLVESGGGLVQAGGSLRVSCAASGSTFRHYAMGWSRQAPGKEWELVAAISSTGGSTYYADSVKGRFTISRDNAKNTVYLQMNSLKPEDTAVYYCAARRLYWGQGTQVTVSS	high polyreactivity
QVQLVESGGGLVQAGGSLRLSCAPSGRIFSYNTMGWYRQAPGKERELVAAISRGGSTYYADSVKGRFTISRDNAKNTVYLQMNSLKPEDTAVYYCNALLPPGSRKYNYWGQGTQVTVSS	high polyreactivity
QVQLVESGGGLVQAGGSLRLSCAASGSISGYYVMGWYRQAQGKERELVAAITWRGGSTYYADSVKGRFTISRDNAKNTVYLQMNSLKPEDTAVYYCNKVPGRGSTFEYWGQGTQVTVSS	high polyreactivity

Sequence	polyreactivity (PSR sort gate)
QVQLVESAGGLVQAGGSLRLSCAASGSTFYFNAMGWYRQAPGKERELVAAISGGGGTNYADSVKGRFTISRDNAKNTVYLQMTSLKPEDTAVYYCAARNRGLRLSNYFGGNYNRDYWGQGTQVTVSS	low polyreactivity
QVQLVESGGGLVQAGGSLRLSCAASGFTFLYYAMGWYRQAPGKEREVVAAISSGGSTYYADSVKGRFTISRDNAKNTVYLQMNSLKPEDTAVYYCNVRYTRNRWQYDYWGQGSQVTVSS	high polyreactivity
QVQLVESGGGLVQAGGSLRLSCAASGSIFAYYAMGWYRQAPGKERELVAAISRRGGSTYYADSVKGRFTISRDNAKNTVYLQMNSLKPEDTAVYYCAARRSTQYKTGVDSWGQGTQVTVSS	high polyreactivity
QVQLVESGGGLVQAGGSLRLSCAASGSIFLAYAMGWYRQAPGKERELVATISSGGSTNYADSVKGRFTISRDNAKNTVYLQMNSLKPEDTAVYYCIADYSIPGYYWPYDYWGQGTQVTVSS	low polyreactivity
QVQLVESGGGLVQAGGSLRLSCAASGRTFKINAMGWYRQAPGKERELVATITGRGASTYYADSVKGRFTISRDNAKNTVYLQMNSLKPEDTAVYYCAARTEVPTRYNYWGQGTQVTVSS	high polyreactivity
QVQLVESGGGLVQAGGSLRLSCAASGNILGYYAMGWYRQAPGKERELVADINWDGGSTYYADSVKGRFTISRDNAKNTVYLQMNSLKPEDTAVYYCNAEVGITWWFREVDYWGQGTQVTVSS	high polyreactivity
QVQLVESGGGLVQAGGSLRLSCAASGFIFNWYAMGWYRQAPGKERELVAVITSSGGSTYYADSVKGRFTISRDNAKNTVYLQMNSLKPDDTAVYYCNKKPGPAPNKYRITARYYYWGQGTQVTVSS	high polyreactivity
QVQLGESGGGLVQAGGSLRLSCAASGSTFGFYAMGWYRQAPGKERELVAAISGRGGSTYYADSVKGRFTISRDNAKNTVYLQMNSLKPEDTAVYYCAKEFKYWGYPYDYWGQGTQVTVSS	low polyreactivity
QVQLVESGGGLVQAGGSLRLSCAASGSTFVSNAMGWYRPAPGKERELVASISQSGGGTDYADSVKGRFTISRDNAKNTVYLQMNSLKPEDTAVYYCAADRVPVQAPYDYWGQGTQVTVSS	high polyreactivity
QVQLVESGGGLVQAGGSLPLSCAASGRIFSYYAMGRYRQAPGKERELVASISRSGGSTYYADSVKGRFTISRDNAKNTVYLQMISLKPEDTAVYYCAAYKYVRSYPYDYWGQGTQVTVSS	low polyreactivity
QVQLVESGGGLVQAGGRLRLSCAASGRTFIPYAMGWYRQAPGNERELVAAIRNGGSTNYADSVKGRFTISRDIAKNTVYLQMNSLKPEDTAVYYCNADLPVYVDYINGCYGYWGQGTQVTVSS	low polyreactivity
QVQLEESGGGLVQAGGSLRLSCAASGSTFLQYPMGWYRQATGKQRELVAAISWRAGSTYYADSVKGRFTISRDTAKNTVYLQMNTLKPEDTAVNYCDADGNRWRYELDDYDYWGQGTQVTGSS	low polyreactivity
QVQLVESGGGLVQAGGSIRLSCAASGSISAEKSMGRDRQAPGKERELVAAITSGGSTDYADSVKGRFTISRDNAKNNVYLQMNSLKPVDTAVSYCAASGRVGPGYWYDYWGQGTQVTVSS	low polyreactivity
QVQLVESGGGLVQAGGSLRLSCAASGSIFLYNAMGWYRQAPGKERELVATITSSTGSTYYADSVKGRFTISRDNAKNTVYLQMNSLKPEDTAVYYCATRESRRQRRYYYWGQGTQVTLSS	high polyreactivity
QVQLVESGGGLVQAGGSLRLSCAASGLTFYHVNAMGWYRQAPGKERELVAGISTRGGSTYYADSVKGRFTISRDNAKNTVYLQMNSLKPEDTAVYYCAAYGSAAQKYPYDRPYRYGYWGQGTQVTVSS	high polyreactivity
QVQLVESGGGLVQAGGSLRLSCAASGRIFYYNTMGWYRQAPGKERELVAAITTNGGSTYYADSVKGRFTISRDNAKNTVYLQMNSPKPEDTAVYYCNRDRYPYYYAYNYWGQGTQVTVSS	low polyreactivity
QVQLVESGGGLVQAGGSLRLSCAASGLTFTYYAMGWNRQAPGKQRELVAAISSSGSDTYYADSVKGRFTISRDNAKNTVYLLMNSLKPEDTAVYYCAAVLTALSPDFEYEYWGQGTQVTVSS	low polyreactivity
QVQLVESGGGLVQAGGSLRLSCAASGFIFSYYAMGWYRQAPGKERELVAAITSNGGSTYYADSVKGRFTISRDNAKNTVYLQMNSLKPEDTAVYYCNVKYRYWNQGYGSWGQGTQVTVSS	high polyreactivity
QVQLVESGGGLVQAGGSLRLTCDASGRTFYWNAMGWYRQAPGKERELVAAISNCGTTTYYADSVKGRFTISRDNAKNTVYLQLNSLKPEDTAVYYCAADIWYFDYEYWGQGTQVTLSS	high polyreactivity
QVQLVESGGGLVQAGGSLRLSCAASGSIFYPYAMGWYRKAPGKERELVAAIRRSGVDTYYADSVKGRFTISRDYAKNTYNLQMISLKPEDTAVYYCAADPYWFFAHYDSWGQGTQVTVSS	low polyreactivity
QVQLVESGGGLVQAGGSLRLSCAASGSTFESNAMGWYRQAPGKERELVAAISSSGGSTYYADSVKGRFTISRDNAKNTVYLQMNSLKPEDTAVYYCNKGGLSDYDYWGQGTQVTVSS	high polyreactivity
